Assay results as given in publication PMC9198364 (Molecular Therapy. Methods & Clinical Development, 2022).

How the values were obtained:
[1] = target: adeno-associated virus (AAV) 9 capsid (recombinant AAV9 particles) (adeno-associated virus 9, UniProt Q6JC40 1-736); experiment: SPR
[2] = target: AAVPHP.eB capsid (recombinant AAVPHP.eB particles) (adeno-associated virus 9 (parental serotype)) (UniProt Q6JC40); experiment: SPR

B1: soluble AAV receptor (AAVR) extracellular fragment containing PKD1-5 (domain or fragment)
chain: RKNRPPIAIVSPQFQEISLPTTSTVIDGSQSTDDDKIVQYHWEELKGPLREEKISEDTAILKLSKLVPGNYTFSLTVVDSDGATNSTTANLTVNK
B1 was tested, and the Kd [1] was 0.139 µM and the Kd [2] was 0.274 µM.
